Laboratory results from PMC5544124 (Methods in enzymology, 2015).

B1: human apo-SUN2 (residues 522-717) (domain or fragment, UniProt Q9UH99 522-717, looked up)
chain: GVTEEQVHHIVKQALQRYSEDRIGLADYALESGGASVISTRCSETYETKTALLSLFGIPLWYHSQSPRVILQPDVHPGNCWAFQGPQGFAVVRLSARIRPTAVTLEHVPKALSPNSTISSAPKDFAIFGFDEDLQQEGTLLGKFTYDQDGEPIQTFHFQAPTMATYQVVELRILTNWGHPEYTCIYRFRVHGEPAH

What was measured:
[1] = target: B1; assay: SEC
[2] = target: the molecule itself; assay: SEC

binding result [1] | Binder | stoichiometry N [2]
binds | TQANNFARSFYPMLRYTNGPPPT (peptide, UniProt Q8WXH0 6863-6885, looked up) [6xHis-sfGFP-KASH2 polypeptide (KASH2 residues 6863-6885)] | 
 | B1 | 3
